B1: LINE1-full (parent)
chain: UACGUAGGUGGUUUUCCCCUGAUAGUGCUAAGGGGGCCUGGAAGUUUGGACUGGGCAGAGCUCAACACAGCGUGGCAAAGUGGCUGUGGCUAGACUGCCUCUCUGGAUUCCUCGUCACUCAGCAGGGCAUCUCUGAGAGAAAUGCC

Variants of B1 are the subject of this data set. Briefly: self-cleavage, relative activity (ratio to wild type); higher = more cleavage; in vitro, sequencing; the parent is a self-cleaving ribozyme.
Consider UACGUAGGCGGUUUUCCCCUGAUAGUGCUAAGGGGGCCUGGAAGUUUGGACUGGGCAGAGUUCAACACAGCGUGGCAAAGUGGCUGUGGCUAGACUGCCUCUCUGGAUUCCUCGUCACUCAGCAGGGCAUCUCUGAGAGAAAUGCC, for which the self-cleavage amounted to 0.08.
In the case of UACGUAGGCGGUUUUCCCCUGAUAGUGCUAAGGGGGCCUGGAAGUUUGGACUGGGCAGAGCUCAACACAGCGUGGCAAAGUGGCUGUGGCUAGACUGGCUCUCUGGAUUCCUCGUCACUCAGCAGGGCAUCUCUGAGAGAAAUGCC it was 0.22.
The figure for UACGUAGGCGGUUUUACCCUGAUAGUGCUAAGGGGGCCUGGAAGUUUGGACUGGGCAGAGCUCAACACAGCGUGGCAAAGUGGCUGUGGCUAGACUGCCUCUCUGGAUUCCUCGUCACUCAGCAGGGCAUCUCUGAGAGAAAUGCC is 0.59; for UACGUAGGCGGUUUUCCCCUGAUAGUGCUAAGGGGGCCUGGAAGUUUGGACUGGGCAGAGCUCAACACAGCGUGGCAAAGUGGCUGUGGCUAGCCUGCCUCUCUGGAUUCCUCGUCACUCAGCAGGGCAUCUCUGAGAGAAAUGCC it is 0.11.
With UACGUAGGCGGUUUUCCCCUGAUAGUGCUAAGGGGGCCUGGAAGUUUGGACUGGGCAGAGCUCAACACAGCGUGGCAAAGUGGCUGUGGCUAGGCUGCCUCUCUGGAUUCCUCGUCACUCAGCAGGGCAUCUCUGAGAGAAAUGCC, the self-cleavage is 0.66.
The figure for UACGUAGGCGGUUUUCCCCUGAUAGUGCUAAGGGGGCCUGGAAGUUUGGACUGGGCAGAGCUCAACACAGCGUGGCAAAGUGGCUGUGGCUAGUCUGCCUCUCUGGAUUCCUCGUCACUCAGCAGGGCAUCUCUGAGAGAAAUGCC is 0.21.
In the case of UACGUAGGCGGUUUUCCCCUGAUAGUGCUAAGGGGGCCUGGAAGUUUGGACUGGGCAGAGCUCAACACAGCGUGGCAAAGUGGCUGUGGCUAGACUGCCUCUCUGGAUUCCUCGUCACUCAGCAGGGCAUCUCUGAGGGAAAUGCC it was 1.21.
In the case of UACGUAGGCGGUUUUCCCCUGAUAGUGCUAAGGGCGCCUGGAAGUUUGGACUGGGCAGAGCUCAACACAGCGUGGCAAAGUGGCUGUGGCUAGACUGCCUCUCUGGAUUCCUCGUCACUCAGCAGGGCAUCUCUGAGAGAAAUGCC it was 1.43; in that of UACGUAGGCGGUUUUCCCCUGAUAGUGCUAAGGGGGCCUGGAAGUUUGGACUGGGCAGAGCUCAACACAGCGUGGCAAAGUGGCUGUGGCUAGACUGCCUCUCUGGAUUCCUCGUCACUCAGCAGGGCAUCUCUGAGAGAAAUGCU, 1.1.
As for UACGUAGGCGGUUUUCCCCUGAUAGUGCUAAGGGGGCCUGGAAGUUUGGACUGGGCAGAGCUCAAUACAGCGUGGCAAAGUGGCUGUGGCUAGACUGCCUCUCUGGAUUCCUCGUCACUCAGCAGGGCAUCUCUGAGAGAAAUGCC, the self-cleavage turned out to be 0.08.
The figure for UACGUAGGCGGUUUUCCCCUGAUAGUGCUAAGGGGGCCUGGAAGUUUGGACUGGGCAGAGCUCAACACAGCGUGGCAAAGUGGCUGUGGCUAGACUGCCUCUCUGGAUUCCUCGUCGCUCAGCAGGGCAUCUCUGAGAGAAAUGCC is 1.53.
With UACGUAGGCGGUUUUCCCCUGAUAGUGCUAAGGGGGCCUGGAAGUUUGGACUGGGCAGAGCUCAACACAGCGUGGCAAAGUGGCUGUGGCUAGACUGCCUCUCUGGAUUCCUCGUCUCUCAGCAGGGCAUCUCUGAGAGAAAUGCC, the self-cleavage stood at 1.62.
For UACGUAGGCGGUUUUCCCCUGAUAGUGAUAAGGGGGCCUGGAAGUUUGGACUGGGCAGAGCUCAACACAGCGUGGCAAAGUGGCUGUGGCUAGACUGCCUCUCUGGAUUCCUCGUCACUCAGCAGGGCAUCUCUGAGAGAAAUGCC, the self-cleavage amounted to 1.16.
In the case of UACGUAGGCGGUUUUCCCCUAAUAGUGCUAAGGGGGCCUGGAAGUUUGGACUGGGCAGAGCUCAACACAGCGUGGCAAAGUGGCUGUGGCUAGACUGCCUCUCUGGAUUCCUCGUCACUCAGCAGGGCAUCUCUGAGAGAAAUGCC it was 1.32; in that of UACGUAGGCGGUUUUCCCCUGAUAGUGCUAAGGGGGCCUGGAAGUUUGGACUGGGCAGAGCUCAACACAGCGUGGCAAAGUGGCUGUGGCUAGACUGCCUCUUUGGAUUCCUCGUCACUCAGCAGGGCAUCUCUGAGAGAAAUGCC, 1.4.
The figure for UACGUAGGCGGUUUUCCCCUGAUAGUGCUAAGGGGGCCUGGAAGUUUGGACUGGGCAGAGCUCAACACAGCGUGGCAAAGUGGCUGUGGCUAGACUGCCUCUCUGGAUUCCUCGUCACUCAGCAGGGCAUCUCUGAGAGAGAUGCC is 1.36.
The figure for UACGUAGGCGGUUUUCCCCUGAUAGUGCUAAGGGGGCCUGGAAGUUUGGACUGGGCAGAGCUCAACACAGCGUGGCAAAGUGGCUGUGGCUAGACUGCCUCUCUGGAUUCCUCGUCACUCAGCAGGGCAUCUCUGAGAGAUAUGCC is 1.53; for UACGUAGGCGGUUUUCCCCUGAUAGUGCUAAGGGGGCCUGGAAGUUUGGACUGGGCAGAGCUCAACACAGCGUGGGAAAGUGGCUGUGGCUAGACUGCCUCUCUGGAUUCCUCGUCACUCAGCAGGGCAUCUCUGAGAGAAAUGCC it is 2.04; for UACGUAGGCGGUUUUCCCCUGAUAGUGCUAAGGGGGCCUGGAAGUUUGGACUGGGCAGAGCUCAACACAGCGUGGCAAAGUGGCUGUGGCUAGAGUGCCUCUCUGGAUUCCUCGUCACUCAGCAGGGCAUCUCUGAGAGAAAUGCC it is 0.12.
Regarding UACGUAGGCGGUUUUCCCCUGAUAGUGCUAAGGGGGCCUGGAAGUUUGGACUGGGCAGAGCUCAACACAGCGUGGCAAAGUGGAUGUGGCUAGACUGCCUCUCUGGAUUCCUCGUCACUCAGCAGGGCAUCUCUGAGAGAAAUGCC, the self-cleavage turned out to be 0.26.
The figure for UACGUAGGCGGUUUUCCCCUGAUAGUGCUAAGGGGGCCUGGAAGUUUGGACUGGGCAGAGCUCAACACAGCGUGGCAAAGUGGCUGUGGCUAGACUGCCUCUCUGGAUUCCUCGUCACUCAGCAGGGUAUCUCUGAGAGAAAUGCC is 1.52; for UACGUAGGCGGUUUUCCCCUGAUAGUGCUAAGGGGGCCUGGAAGUUUGGACUGGGCAGAGCUCAACACAGCGUGGCAAAGUGGCUGUGGCUAGACUGCCUCUCUGGAUUCCUCGUCACUCAGCAGGGCAUCUCUGAGAGAAAUGAC it is 1.3.
The figure for UACGUAGGCGGUUUUCCCCUGAUAGUGCUAAGGGGGCCUGGAAGUUUGGACUGGGCAGAGCUCAACACAGCGUGGCAAAGUGGCUGUGGCUAGACUGCCUCUCUGGAUUCCUCGUCACUCUGCAGGGCAUCUCUGAGAGAAAUGCC is 1.32.
The figure for UACGUAGGCGGUUUUCCCCUGAUAGUGCUAAGGGGGCCUGGAAGUUUGGACUGGGCAGAGCUCAACACGGCGUGGCAAAGUGGCUGUGGCUAGACUGCCUCUCUGGAUUCCUCGUCACUCAGCAGGGCAUCUCUGAGAGAAAUGCC is 0.83.
In the case of UACGUAGGCGGUUUUCCCCUGAUAGUGCUAAGGGGGCCUGGAAGUUUGGACUGGGCAGAGCUCAACACAGCGUGGCGAAGUGGCUGUGGCUAGACUGCCUCUCUGGAUUCCUCGUCACUCAGCAGGGCAUCUCUGAGAGAAAUGCC, the self-cleavage is 1.92.
In the case of UACGUAGGCGGUUUUCCCCUGAUAGUGCUAAGGGGGCCUGGAAGUUUGGACUGGGCAGAGCUCAACACAGCGUGGCAAAGUGGCUGUGGCUAGACUGCCUCUCUGGAUUCCUCGUCACUCAGCUGGGCAUCUCUGAGAGAAAUGCC it was 1.26; in that of UACGUAGGCGGUUUUCCCCUGAUAGUGCUAAGGGGGCCUGGAAGUUUGGACUGGGCAGAGCUCAACACAGCGUGGCAGAGUGGCUGUGGCUAGACUGCCUCUCUGGAUUCCUCGUCACUCAGCAGGGCAUCUCUGAGAGAAAUGCC, 1.19; in that of UACGUAGGCGGUUUUCCCCUGAUAGUGCUAAGGGGGCUUGGAAGUUUGGACUGGGCAGAGCUCAACACAGCGUGGCAAAGUGGCUGUGGCUAGACUGCCUCUCUGGAUUCCUCGUCACUCAGCAGGGCAUCUCUGAGAGAAAUGCC, 1.29.
Consider UACGUAGGCGGUUUUCCCCUGAUAGUGCUAAGGGGGCCUGGAAGUUUGGACUGGGCAGAGCUCAACACAGCGUGGCAAAGUGGCUGUGGCUAGACUGCCUCUCUGGAUUCCUGGUCACUCAGCAGGGCAUCUCUGAGAGAAAUGCC, for which the self-cleavage was determined as 1.75.
The figure for UACGUAGGCGGUUUUCCCCUGAUAGUGCUAAGGGGGCCUGGAAGUUUGGACUGGGCAGAGCUCAACACAGCGUGGCAAAGUGGCUGUGGCUAGACUGCCUCUCUGGUUUCCUCGUCACUCAGCAGGGCAUCUCUGAGAGAAAUGCC is 1.59.
The figure for UACGUAGGCGGUUUUCCCCUGAUAGUGCUAAGGGGGCCUGGAAGUUUGGACUGGGCAGAGCUCAACACAGCGUGGCAAAGUGGCUGUGGCUAGACUGCCUCUCUGGGUUCCUCGUCACUCAGCAGGGCAUCUCUGAGAGAAAUGCC is 1.61; for UACGUAGGCGGUUUUCCCCUGAUAGUGCUAAGGGGGCCUGGAAGUUUGGACUGGGCAGAGCUCAACACAGCGUGGCAAAGUGGCUGUGGCUAGACUGCCUCUCUGGAUUCCUCGUCACUCAGCAGGGCAUCUCUGAGAGAACUGCC it is 0.83.
UACGUAGGCGGUUUUCCCCUGAUAGUGCUAAGGGGGCCUGGAAGUUUGGACUGGGCAGAGCUCAACACAGCGUGGCAAAGUGGCUGUGGCUAGACUGCCUCUCUGGAUUCCUCGUCACUCAGCAGGGCAUCUCUGAGAGAAUUGCC: the self-cleavage was found to be 1.38.
As for UACGUAGGCGGUUUUCCCCUGAUAGUGCUAAGGGGGCCUGGAAGUUUGGACUGGGCAGAGCUCAACACAGCGUGGCAAAGUGGCUGUGGCUAGACUGCCUCUCUGGAUUCCUCGUCACUCAGCAGGGCAUCUCUGAGAGAAGUGCC, the self-cleavage is 1.24.
In the case of UACGUAGGCGGUUUUCCCCUGAUAGUGCUAAGGGGGCCUGGAAGUUUGGACUGGGCAGAGCUCAACACAGCGUGGCAAAGUGGCUGUGGCUAGACUGCCUCUCUGGAUUCCUCGUCACUCAGCAGGGCAUCUCUGGGAGAAAUGCC it was 1.75; in that of UACGUAGGCGGUUUUCCCCUGAUAGUGCUAAGGGGGCCUGGAAGUUUGGACUGGGCAGAGCUCAACACAGCGUGGCAAAGUGGCUGUGGCUAGACUGCCUCUCUGGAUUCCUCGUCACUCAGCAGGGCAUCUCUGUGAGAAAUGCC, 1.3.
In the case of UACGUAGGCGGUUUUCCCCUGAUAGUGCUAAGGAGGCCUGGAAGUUUGGACUGGGCAGAGCUCAACACAGCGUGGCAAAGUGGCUGUGGCUAGACUGCCUCUCUGGAUUCCUCGUCACUCAGCAGGGCAUCUCUGAGAGAAAUGCC it was 1.05; in that of UACGUAGGCGGUUUUCCCCUGAUAGUGCUAAGGCGGCCUGGAAGUUUGGACUGGGCAGAGCUCAACACAGCGUGGCAAAGUGGCUGUGGCUAGACUGCCUCUCUGGAUUCCUCGUCACUCAGCAGGGCAUCUCUGAGAGAAAUGCC, 0.8.
As to UACGUAGGCGGUUUUCCCCUGAUAGUACUAAGGGGGCCUGGAAGUUUGGACUGGGCAGAGCUCAACACAGCGUGGCAAAGUGGCUGUGGCUAGACUGCCUCUCUGGAUUCCUCGUCACUCAGCAGGGCAUCUCUGAGAGAAAUGCC, the self-cleavage was found to be 1.16.

The values above are taken from the RNAGym collection of RNA variant scans (doi:10.7554/elife.90254).
